This note sets out measurements from paper PMC5536344.

For test [1], the target named is HIV-1 Pr55^Gag with a TEV-cleavable C-terminal hexahistidine tag, uncleaved (HIV-1). As to the kind of experiment: SEC. A general note: In gel filtration, larger molecules generally elute earlier.
Test [2] concerns the target HIV-1 Pr55^Gag with a non-cleavable C-terminal hexahistidine tag (HIV-1). As to the kind of experiment: SEC.
Test [3] addresses HIV-1 Pr55^Gag-ENLYFQ (Pr55^Gag-TEV-His after removal of the tag with TEV protease) (HIV-1). As to the kind of experiment: SEC.
In test [4] the target is HIV-1 Pr55^Gag (untagged full length wild type Gag polyprotein) (HIV-1). The test can be described thus: SEC-MALS.
The target is the same in test [5]. As to the kind of experiment: SEC.

For orientation: stoichiometry N means the number of molecules, sites or subunits per partner or assembly. In turn, “HIV-1 Pr55^Gag with a TEV-cleavable C-terminal hexahistidine tag, uncleaved (natural protein)” registered a stoichiometry N in test [1] of 2.
Substance “HIV-1 Pr55^Gag with a non-cleavable C-terminal hexahistidine tag (natural protein)” registered a stoichiometry N in test [2] of 2.
“HIV-1 Pr55^Gag-ENLYFQ (Pr55^Gag-TEV-His after removal of the tag with TEV protease) (natural protein)”: the stoichiometry N in test [3] was found to be 2.
In the case of “HIV-1 Pr55^Gag (untagged full length wild type Gag polyprotein) (natural protein)”, the stoichiometry N in test [4] and in test [5] was 2 in each case.
